This data set in a line: self-splicing fitness, log relative to wild type (ln ratio); higher = more splicing; Tetrahymena group I intron in knt gene, E. coli kanamycin selection, DiMSum; sequences stand for … in CUCUCU…GGAGGGAAAAGUUAUCAGGCAUGCACCUGGUAGCUAGUCUUUAAACCAAUAGAUUGCAUCGGUUUAAAAGGCAAGACCGUCAAAUUGCGGGAAAGGGGUCAACAGCCGUUCAGUACCAAGUCUCAGGGGAAACUUUGAGAUGGCCUUGCAAAGGGUAUGGUAAUAAGCUGACGGACAUGGUCCUAACCACGCAGCCAAGUCCUAAGUCAACAGAUCUUCUGUUGAUAUGGAUGCAGUUCACAGACUAAAUGUCGGUCGGGGAAGAUGUAUUCUUCUCAUAAGAUAUAGUCGGACCUCUCCUUAAUGGGAGCUAGCGGAUGAAGUGAUGCAACACUGGAGCCGCUGGGAACUAAUUUGUAUGCGAAAGUAUAUUGAUUAGUUUUGGAGUACUCGUGGUCG
A digest of the protocol:
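Library with all eight P1ex-region intron nucleotides randomised, intron inside the knt kanamycin-resistance gene on pET-22b(+), in E. coli BL21(DE3). Cells grew overnight at 37°C or 30°C on LB agar with or without 25 μg/mL kanamycin (plus 100 μg/mL carbenicillin, 50 μM IPTG, 0.2% rhamnose), in six replicate transformations. Pooled colonies were amplicon-sequenced on Illumina HiSeq 2500. DiMSum fitness is the error-weighted combination of wild-type-normalised replicate fold changes, kanamycin versus none.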

± gives the uncertainty stated by the source.

Consider CACCAGCAAUAUUACGUCCC, for which the “self-splicing fitness (ln)” value is -4.07 ± 0.31 (30 °C) and -2.79 ± 0.32 (37 °C).

For the sequence AGGCAGCAAUAUUACGUCCA, the “self-splicing fitness (ln)” value is, setting by setting: (30 °C) -0.459 ± 0.051; (37 °C) 0.0124 ± 0.078.

In the case of AUUAAGCAAUAUUACGCACC, the “self-splicing fitness (ln)” value was -1.52 ± 0.19 (30 °C) and 0.0961 ± 0.28 (37 °C).

For AGCUAGCAAUAUUACGCUGA, the “self-splicing fitness (ln)” value is, setting by setting: (30 °C) -2.63 ± 0.18; (37 °C) -0.955 ± 0.09.

For the sequence CACGAGCAAUAUUACGCGUA, the “self-splicing fitness (ln)” value is -2.23 ± 0.12 (30 °C) and -1.28 ± 0.15 (37 °C).

As to AGCAAGCAAUAUUACGGCGG, the “self-splicing fitness (ln)” value by setting is: (30 °C) -1.29 ± 0.083; (37 °C) 0.133 ± 0.11.

On to UCAAAGCAAUAUUACGCCUG, for which the “self-splicing fitness (ln)” value is, setting by setting: (30 °C) -0.562 ± 0.066; (37 °C) -0.293 ± 0.091.

Regarding CGCGAGCAAUAUUACGGUUG, the “self-splicing fitness (ln)” value is, setting by setting: (30 °C) -1.73 ± 0.068; (37 °C) -1.76 ± 0.12.

On to AUAAAGCAAUAUUACGCCAA, for which the “self-splicing fitness (ln)” value by setting is: (30 °C) -0.625 ± 0.15; (37 °C) -0.34 ± 0.17.

For the sequence GAAUAGCAAUAUUACGUUAA, the “self-splicing fitness (ln)” value reads like this: (30 °C) -2.56 ± 0.17; (37 °C) -1.9 ± 0.15.

Turning to GAUCAGCAAUAUUACGGUUU, the “self-splicing fitness (ln)” value was -0.544 ± 0.074 (30 °C) and -0.154 ± 0.098 (37 °C).

As to UGAAAGCAAUAUUACGCUGG, the “self-splicing fitness (ln)” value was -2.59 ± 0.16 (30 °C) and -1.27 ± 0.19 (37 °C).

On to CAGCAGCAAUAUUACGAUCC, for which the “self-splicing fitness (ln)” value by setting is: (30 °C) -2.11 ± 0.22; (37 °C) -2.73 ± 0.4.

On to UGCCAGCAAUAUUACGCGCC, for which the “self-splicing fitness (ln)” value is, setting by setting: (30 °C) -1.15 ± 0.17; (37 °C) -0.705 ± 0.23.

Turning to UUCAAGCAAUAUUACGAUGU, the “self-splicing fitness (ln)” value (30 °C) was -2.21 ± 0.13 and the “self-splicing fitness (ln)” value (37 °C) was -1.31 ± 0.16.

With AAAAAGCAAUAUUACGUACU, the “self-splicing fitness (ln)” value came out at 0.142 ± 0.054 (30 °C) and 0.151 ± 0.077 (37 °C).

On to UUGGAGCAAUAUUACGCCAA, for which the “self-splicing fitness (ln)” value (30 °C) is -1.49 ± 0.44.

For GUUUAGCAAUAUUACGACAA, the “self-splicing fitness (ln)” value is, setting by setting: (30 °C) -2.09 ± 0.21; (37 °C) -0.807 ± 0.19.

In the case of AGGGAGCAAUAUUACGCAUU, the “self-splicing fitness (ln)” value (30 °C) was -3.7 ± 0.37.

With CGGCAGCAAUAUUACGCCUU, the “self-splicing fitness (ln)” value was -0.474 ± 0.097 (30 °C) and -0.622 ± 0.12 (37 °C).

On to CGUGAGCAAUAUUACGCUAU, for which the “self-splicing fitness (ln)” value was -2.39 ± 0.17 (30 °C) and -2.49 ± 0.23 (37 °C).

For the sequence GAUAAGCAAUAUUACGGAUG, the “self-splicing fitness (ln)” value runs as follows: (30 °C) -2.76 ± 0.11; (37 °C) -1 ± 0.11.

In the case of GGUCAGCAAUAUUACGCGGA, the “self-splicing fitness (ln)” value by setting is: (30 °C) -2.04 ± 0.47; (37 °C) -2.17 ± 0.41.

Turning to UCUUAGCAAUAUUACGCUAA, the “self-splicing fitness (ln)” value (30 °C) was -2.71 ± 0.35.

Regarding ACCAAGCAAUAUUACGAACC, the “self-splicing fitness (ln)” value by setting is: (30 °C) -1.62 ± 0.1; (37 °C) -0.978 ± 0.12.

As to GCCAAGCAAUAUUACGAUGA, the “self-splicing fitness (ln)” value (30 °C) is -3.12 ± 0.19 and the “self-splicing fitness (ln)” value (37 °C) is -1.66 ± 0.12.

As for CAUGAGCAAUAUUACGUGGA, the “self-splicing fitness (ln)” value by setting is: (30 °C) -3.96 ± 0.47; (37 °C) -3 ± 0.38.

For CCAUAGCAAUAUUACGUAUA, the “self-splicing fitness (ln)” value (30 °C) was -3.89 ± 0.3 and the “self-splicing fitness (ln)” value (37 °C) is -1.46 ± 0.17.

For GGGCAGCAAUAUUACGGUCU, the “self-splicing fitness (ln)” value runs as follows: (30 °C) -3.22 ± 0.26; (37 °C) -1.03 ± 0.24.

On to CUUCAGCAAUAUUACGCAGG, for which the “self-splicing fitness (ln)” value is, setting by setting: (30 °C) -4.17 ± 0.34; (37 °C) -2.07 ± 0.26.

With UCAAAGCAAUAUUACGGAUC, the “self-splicing fitness (ln)” value (30 °C) was -3.94 ± 0.41 and the “self-splicing fitness (ln)” value (37 °C) was -3.23 ± 0.4.

As to UGGUAGCAAUAUUACGGUUG, the “self-splicing fitness (ln)” value is, setting by setting: (30 °C) -0.694 ± 0.082; (37 °C) -0.285 ± 0.11.

With AGCAAGCAAUAUUACGCCCG, the “self-splicing fitness (ln)” value by setting is: (30 °C) -0.279 ± 0.08; (37 °C) -0.0697 ± 0.11.

As for CUAGAGCAAUAUUACGAGGA, the “self-splicing fitness (ln)” value runs as follows: (30 °C) -2.99 ± 0.2; (37 °C) -2.53 ± 0.28.

Regarding UCCGAGCAAUAUUACGCCUA, the “self-splicing fitness (ln)” value (30 °C) is -2.13 ± 0.2 and the “self-splicing fitness (ln)” value (37 °C) is -2.6 ± 0.36.

Regarding UUCAAGCAAUAUUACGUCUU, the “self-splicing fitness (ln)” value (37 °C) was -3.54 ± 0.33.

Turning to CCAUAGCAAUAUUACGGUUU, the “self-splicing fitness (ln)” value is -4.54 ± 0.25 (30 °C) and -2.79 ± 0.21 (37 °C).

Regarding ACCAAGCAAUAUUACGGGCU, the “self-splicing fitness (ln)” value (30 °C) is -1.12 ± 0.058 and the “self-splicing fitness (ln)” value (37 °C) was -1.16 ± 0.083.

With GCAUAGCAAUAUUACGAGAU, the “self-splicing fitness (ln)” value is, setting by setting: (30 °C) -3.61 ± 0.46; (37 °C) -2.13 ± 0.33.

(Values after the supplement of paper PMC7877785.)
